Drawing on paper PMC9478924 (The Journal of Biological Chemistry, 2022), this text covers Kd for 16 molecules.

For orientation: Kd means the constant that tells how readily two partners part at equilibrium. High values mean lower affinity, low ones higher affinity.

B1: CCL8 (ligand, human, UniProt P80075 24-99, looked up)
chain: QPDSVSIPITCCFNVINRKIPIQRLESYTRITNIQCPKEAVIFKTKRGKEVCADPKERWVRDSMKHLDQIFQNLKP
B2: CCL16 (ligand, human, UniProt O15467 24-120, looked up)
chain: QPKVPEWVNTPSTCCLKYYEKVLPRRLVVGYRKALNCHLPAIIFVTKRNREVCTNPNDDWVQEYIKDPNLPLLPTRNLSTVKIITAKNGQPQLLNSQ
B3: CCL14 (ligand, human, UniProt Q16627 20-93, looked up)
chain: TKTESSSRGPYHPSECCFTYTTYKIPRQRIMDYYETNSQCSKPGIVFITKRGHSVCTNPSDKWVQDYIKDMKEN
B4: CCL4 (ligand, human, UniProt P13236 24-92, looked up)
chain: APMGSDPPTACCFSYTARKLPRNFVVDYYETSSLCSQPAVVFQTKRSKQVCADPSESWVQEYVYDLELN
B5: CCL18 (ligand, human, UniProt P55774 21-89, looked up)
chain: AQVGTNKELCCLVYTSWQIPQKFIVDYSETSPQCPKPGVILLTKRGRQICADPNKKWVQKYISDLKLNA
B6: CCL3 (ligand, human, UniProt P10147 24-92, looked up)
chain: SLAADTPTACCFSYTSRQIPQNFIADYFETSSQCSKPGVIFLTKRSRQVCADPSEEWVQKYVSDLELSA
B7: CCL7 (ligand)
chain: not shown
B8: CCL11 (ligand)
chain: not shown
B9: CCL22 (ligand, human, UniProt O00626 25-93, looked up)
chain: GPYGANMEDSVCCRDYVRYRLPLRVVKHFYWTSDSCPRPGVVLLTFRDKEICADPRVPWVKMILNKLSQ
B10: CCL1 (ligand, human, UniProt P22362 24-96, looked up)
chain: KSMQVPFSRCCFSFAEQEIPLRAILCYRNTSSICSNEGLIFKLKRGKEACALDTVGWVQRHRKMLRHCPSKRK
B11: CCL13 (ligand)
chain: not shown
B12: CCL17 (ligand, human, UniProt Q92583 24-94, looked up)
chain: ARGTNVGRECCLEYFKGAIPLRKLKTWYQTSEDCSRDAIVFVTVQGRAICSDPNNKRVKNAVKYLQSLERS
B13: CCL23 (ligand, human, UniProt P55773 22-120, looked up)
chain: RVTKDAETEFMMSKLPLENPVLLDRFHATSADCCISYTPRSIPCSLLESYFETNSECSKPGVIFLTKKGRRFCANPSDKQVQVCMRMLKLDTRIKTRKN
B14: CCL5 (ligand, human, UniProt P13501 24-91, looked up)
chain: SPYSSDTTPCCFAYIARPLPRAHIKEYFYTSGKCSNPAVVFVTRKNRQVCANPEKKWVREYINSLEMS
B15: CCL24 (ligand, human, UniProt O00175 27-119, looked up)
chain: VVIPSPCCMFFVSKRIPENRVVSYQLSSRSTCLKAGVIFTTKKGQQFCGDPKQEWVQRYMKNLDAKQKKASPRARAVAVKGPVQRYPGNQTTC
B16: CCL15 (ligand, human, UniProt Q16663 22-113, looked up)
chain: QFTNDAETELMMSKLPLENPVVLNSFHFAADCCTSYISQSIPCSLMKSYFETSSECSKPGVIFLTKKGRQVCAKPSGPGVQDCMKKLKPYSI

For one assay, the target named is T1, EVA-P974 (UniProt A0A023FDY8 22-118, biotin on the Avi-tag (Bir-A ligase)).
T1 sequence (looked up): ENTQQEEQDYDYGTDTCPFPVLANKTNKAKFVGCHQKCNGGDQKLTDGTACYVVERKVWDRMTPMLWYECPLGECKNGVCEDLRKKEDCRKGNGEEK
Put plainly: SPR. In general terms: Surface plasmon resonance follows binding to a sensor surface in real time, without labels.
B1 had a dissociation constant (Kd) of less than 0.1 nM.

The molecule B2 registered a Kd of less than 0.1 nM.

The target in another assay is T2, EVA-1 (UniProt P0C8E7 21-114, biotin on the Avi-tag (Bir-A ligase)).
T2 sequence (looked up): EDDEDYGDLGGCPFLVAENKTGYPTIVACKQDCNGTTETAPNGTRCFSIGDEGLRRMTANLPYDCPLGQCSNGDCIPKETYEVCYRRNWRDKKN
Briefly: SPR.
In the case of B3, the Kd was determined as 92 nM.

Consider B4, for which the equilibrium dissociation constant (Kd) came out at 60.7 nM.

For the molecule B5, the Kd is 192 nM.

Molecule B6 had a Kd of 0.21 nM.

Another assay deals with T1, EVA-P974. Briefly: SPR. This is another data set of the same source.
B7: the affinity, expressed as Kd, was 4.4 nM.

Molecule B3 came in with a Kd of 1.8 nM. Against the preceding molecule, the Kd is about 2.4-fold lower.

In turn, B1 gave a Kd of 0.03 nM.

As to B8, binding was characterised by a dissociation constant (Kd) of 0.3 nM. Against the preceding molecule, the Kd is about 10-fold higher.

For B4, binding was characterised by a dissociation constant (Kd) of 1.8 nM.

As to B5, the Kd turned out to be 0.6 nM.

On to B2, for which the affinity, expressed as Kd, was 0.1 nM. This Kd lies about 6-fold lower than the previous one.

B9 showed a dissociation constant (Kd) of 1.8 nM.

Turning to B6, the Kd is 0.6 nM.

With B10, the dissociation constant (Kd) is 15 nM. This Kd lies about 25-fold higher than the previous one.

Turning to B11, the affinity, expressed as Kd, was 0.5 nM. This Kd lies about 30-fold lower than the previous one.

B12 yielded an equilibrium dissociation constant (Kd) of 23 nM.

The target of another assay is T3, EVA-4 (UniProt P0C8E9 24-127, biotin on the Avi-tag (Bir-A ligase)).
T3 sequence (looked up): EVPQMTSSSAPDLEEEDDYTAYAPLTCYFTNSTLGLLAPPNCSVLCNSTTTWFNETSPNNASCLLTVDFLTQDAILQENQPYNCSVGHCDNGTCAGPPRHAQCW
Briefly: SPR.
Regarding B13, the dissociation constant Kd is 7.4 nM.

In the case of B7, binding was characterised by a dissociation constant (Kd) of 0.8 nM.

The molecule B3 had a Kd of 1.1 nM. The Kd values of the last two molecules are within 1.5-fold of each other.

The molecule B1 showed a Kd of 0.4 nM.

Take B8: the Kd worked out at 20 nM.

On to B5, for which the dissociation constant (Kd) amounted to 0.4 nM.

As to B2, the affinity, expressed as Kd, was 4.1 nM.

As for B9, binding was characterised by a dissociation constant (Kd) of 8.5 nM. This Kd is about 2.1-fold higher than that of the molecule before.

For the molecule B14, the equilibrium dissociation constant (Kd) amounted to 6.1 nM.

B6 showed a Kd of 0.2 nM.

In the case of B15, the equilibrium dissociation constant (Kd) is 55 nM. Compared with the last molecule, the Kd is about 280-fold higher.

Molecule B16 displayed a Kd of 240 nM.

As for B10, binding was put at a Kd of 376 nM. Compared with the last molecule, the Kd is about 1.6-fold higher.

In the case of B12, the dissociation constant (Kd) worked out at 283 nM.
